Assay results as given in paper PMC8510580, “HspB8 prevents aberrant phase transitions of FUS by chaperoning its folded RNA-binding domain” (eLife, 2021).
Substitutions are numbered along the chain they refer to. In names and notes the source's numbering stands.

B1: HspB8-WT (natural protein, UniProt Q9UJY1 1-196, looked up)
chain: MADGQMPFSCHYPSRLRRDPFRDSPLSSRLLDDGFGMDPFPDDLTASWPDWALPRLSSAWPGTLRSGMVPRGPTATARFGVPAEGRTPPPFPGEPWKVCVNVHSFKPEELMVKTKDGYVEVSGKHEEKQQEGGIVSKNFTKKIQLPAEVDPVTVFASLSPEGLLIIEAPQVPPYSTFGESSFNNELPQDSQEVTCT
notes: small heat shock protein HspB8; IDR printed as AA1-71 and alpha-crystallin domain as AA72-196; The article's keywords name Human as organism; also called small heat shock protein HspB8; source: E. coli BL21 Codon RIL, purified (GST, PreScission cleavage, reverse GST, ResourceQ); not shown: GST, N-terminal, cleaved
B2: HspB8-K141E (natural protein, UniProt Q9UJY1 1-196, looked up)
chain: B1 chain with K141E
notes: small heat shock protein HspB8 with the Charcot-Marie Tooth disease-associated mutation K141E in the alpha-crystallin domain; Same construct as m2 with K141E; also called K141E mutant; HspB8-K141E mutant; source: E. coli BL21 Codon RIL, purified (GST, PreScission cleavage, reverse GST, ResourceQ); not shown: GST, N-terminal, cleaved
B3: FUS-G156E-GFP (FUSm) (natural protein, human, UniProt P35637 1-526, looked up)
chain: MASNDYTQQATQSYGAYPTQPGQGYSQQSSQPYGQQSYSGYSQSTDTSGYGQSSYSSYGQSQNTGYGTQSTPQGYGSTGGYGSSQSSQSSYGQQSSYPGYGQQPAPSSTSGSYGSSSQSSSYGQPQSGSYSQQPSYGGQQQSYGQQQSYNPPQGYEQQNQYNSSSGGGGGGGGGGNYGQDQSSMSSGGGSGGGYGNQDQSGGGGSGGYGQQDRGGRGRGGSGGGGGGGGGGYNRSSGGYEPRGRGGGRGGRGGMGGSDRGGFNKFGGPRDQGSRHDSEQDNSDNNTIFVQGLGENVTIESVADYFKQIGIIKTNKKTGQPMINLYTDRETGKLKGEATVSFDDPPSAKAAIDWFDGKEFSGNPIKVSFATRRADFNRGGGNGRGGRGRGGPMGRGGYGGGGSGGGGRGGFPSGGGGGGGQQRAGDWKCPNPTCENMNFSWRNECNQCKAPKPDGPGGGPGGSHMGGNYGDDRRGGRGGYDRGGYRGRGGDRGGFRGGRGGGDRGGFGPGKMDSRGEHRQDRRERPY
notes: FUS (fused in sarcoma), human, UniProt P35637, with G156E; also called FUSm-GFP; source: Sf9 cells, purified as described (Patel et al., 2015); not shown: 5 AA tag used for purification, N-terminal, kept; GFP, C-terminal, kept

Columns and labels:
FUS-G156E-GFP (FUSm) = molecular target: B3; assay: cross-linking; XL-MS of FUSm (or FUSm_K9) mixed with the partner under condensate-inducing low salt (75 mM): low-salt mixture or dense phase separated by centrifugation; H12/D12 DSS, 30 min, 37°C; also 3 hr after formation and with an RNA oligonucleotide; conditions: both partners purified
Taf-15 = molecular target: T1, Taf-15 (UniProt Q92804 1-592); assay: MST; 33 nM FUSm, partner titrated; non-phase separating conditions (500 mM KCl); conditions: both partners purified
T1 construct: stress granule protein Taf-15; no methods for its production; also called stress granule protein Taf-15

[1] = molecular target: the molecule itself; assay: cross-linking; quantitative XL-MS of FUSm alone: low salt (75 mM KCl, condensates) against high salt (500 mM KCl, no phase separation); 1.9 mM H12/D12 DSS, 30 min, 37°C

T1 sequence (Q92804 whole entry): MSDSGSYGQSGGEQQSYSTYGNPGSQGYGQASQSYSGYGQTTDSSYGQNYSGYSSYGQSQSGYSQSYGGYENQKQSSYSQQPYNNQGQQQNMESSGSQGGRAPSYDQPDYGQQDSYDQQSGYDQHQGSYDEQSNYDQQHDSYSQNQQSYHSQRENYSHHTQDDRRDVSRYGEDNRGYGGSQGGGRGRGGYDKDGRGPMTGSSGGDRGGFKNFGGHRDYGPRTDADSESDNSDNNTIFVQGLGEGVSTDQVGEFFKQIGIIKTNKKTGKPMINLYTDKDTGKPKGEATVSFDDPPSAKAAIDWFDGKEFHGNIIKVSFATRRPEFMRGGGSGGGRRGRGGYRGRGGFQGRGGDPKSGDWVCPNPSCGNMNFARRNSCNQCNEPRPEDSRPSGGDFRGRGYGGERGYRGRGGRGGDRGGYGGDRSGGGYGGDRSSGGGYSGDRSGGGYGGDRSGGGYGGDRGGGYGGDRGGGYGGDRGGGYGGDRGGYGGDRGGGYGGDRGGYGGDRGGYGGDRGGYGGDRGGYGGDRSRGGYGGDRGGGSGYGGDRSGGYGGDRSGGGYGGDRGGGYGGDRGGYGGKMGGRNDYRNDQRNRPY

binding result (FUS-G156E-GFP (FUSm))	Kd (Taf-15) [nM]	Binder	binding result [1]
binds	–	B1	–
binds	–	B2	–
–	260	B3	binds
